# Patent publication US11673947B2, “Target tissue-specific antigen-binding molecule” (Chugai Seiyaku Kabushiki Kaisha, priority 2012, dated 2023)
# T1: human IL6 receptor (IL-6R) (Homo sapiens, UniProt P08887)
# T1 sequence (P08887 20-355 limits assumed): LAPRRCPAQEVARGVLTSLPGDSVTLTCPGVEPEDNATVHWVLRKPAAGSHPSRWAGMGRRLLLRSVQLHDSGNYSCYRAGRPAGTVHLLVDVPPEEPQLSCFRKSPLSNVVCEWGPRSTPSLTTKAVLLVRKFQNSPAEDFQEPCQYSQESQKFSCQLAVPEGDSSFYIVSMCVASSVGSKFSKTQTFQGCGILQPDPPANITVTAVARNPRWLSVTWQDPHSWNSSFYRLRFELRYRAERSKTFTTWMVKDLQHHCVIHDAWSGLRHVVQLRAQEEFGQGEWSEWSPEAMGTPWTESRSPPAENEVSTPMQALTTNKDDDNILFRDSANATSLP
# B1: 6RNMSC1-2_F02: antibody that binds to hIL-6R in the presence of kynurenine; SEQ ID NOs: 86 and 87 (antibody, listed as Homo sapiens, V domains shown)
# VH: QVQLVQSGAEVKKPGSSVKVSCKASGGTFSSYAISWVRQAPGQGLEWMGGIIPIFGTANYAQKFQGRVTITADESTSTAYMELSSLRSEDTAVYYCARDAPVVARPRGAFDIWGQGTMVTVSS
# VL: DIVMTQTPLSSPVTLGQPASISCRSSQSLVHSDGNTYLSWLQQRPGQPPRLLIHEISNRFSGVPDRFSGSGAGTNFTLKISRVEAEDVGVYYCMQATQFPRTFGQGTKVEIK
# How the values were obtained:
# [1] = system: BaF/hIL-6R cells; assay: Flow cytometry, binding to membrane-type hIL-6R on BaF/hIL-6R cells; assay type: cell-based
# Protocol: 6RNMSC1-2_F02 antibody which has an antigen-binding activity in the presence of kynurenine as described in Example 14 was assessed for its binding to soluble hIL-6R. As a first step in assessing the ADCC activity of 6RNMSC1-2_F02 to hIL-6R-expressing cells, 6RNMSC1-2_F02 was evaluated as to whether it has the ability to bind to membrane-type hIL-6R expressed in hIL-6R-expressing cells. Specifically, the binding of 6RNMSC1-2_F02 to cells of the BaF/hIL-6R line (WO2012/073992) was assayed and analyzed using a flow cytometer. An appropriate number of BaF/hIL-6R cells were prepared and blocked with PBS containing 2% FBS on ice for one hour or more. Supernatant was removed from the blocked cells by centrifugation, and 100 μl of 6RNMSC1-2_F02 or the control antibody MRA (the heavy chain and light chain sequences are shown in SEQ ID NOs: 92 and 93, respectively) was added under two conditions: in the presence or absence of a final concentration of kynurenine at 100 μM. In this step, the antibodies were contacted with cell-membrane hIL-6R on ice for 30 minutes. […] Then, in the presence or absence of kynurenine, the complex was contacted with a secondary antibody (Beckman Coulter IM1627) that recognizes the antibody constant region. […] The binding of 6RNMSC1-2_F02 to the prepared cells was assayed and analyzed using the BD FACS cant II Flow Cytometer (BD).
# [2] = biological target: T1, human IL6 receptor (IL-6R); assay: Biacore T200, interaction of 6RNMSC1-2_F02 with human IL6 receptor with or without kynurenine; assay type: binding; settings: 25° C.
# Description: Biacore T200 (GE Healthcare) was used to analyze the interaction of 6RNMSC1-2_F02 with human IL6 receptor (IL-6R) in antigen-antibody reaction. Sensor chip CM5 (GE Healthcare) was immobilized with an appropriate amount of protein A (Invitrogen) by amine coupling. The antibody of interest was captured by the chip to allow interaction with IL-6R as an antigen. The running buffer used was 20 mmol/1 ACES, 150 mmol/l NaCl, 0.05% (w/v) Tween20, pH 7.4. The interaction with the antigen IL-6R was assayed at 25° C. The buffers used to dilute IL-6R were the running buffer itself, and a buffer prepared by adding 100 μmol/l kynurenine to the running buffer, and in addition a buffer prepared as a control by adding 10 mmol/l ATP to the running buffer.
# A diluted IL-6R solution and a running buffer as a blank were injected at a flow rate of […] for one minute to allow interaction of IL-6R with 6RNMSC1-2_F02 captured on the sensor chip. Then, the running buffer was injected at a flow rate of 10 μl/min for one minute. After observation of IL-6R dissociation from the antibody, 10 mmol/l glycine-HCl (pH 1.5) was injected at a flow rate of 30 μl/min for 30 seconds to regenerate the sensor chip. The dissociation constant KD (M) of 6RNMSC1-2_F02 was calculated for IL-6R based on the association rate constant ka (1/Ms) and dissociation rate constant kd (1/s), both of which are kinetic parameters calculated from the sensorgram obtained by the measurement. Each parameter was calculated using the Biacore T200 Evaluation Software (GE Healthcare).
# The running buffers used were 20 mmol/1 ACES, 150 mmol/l NaCl, 0.05% (w/v) Tween20, pH 7.4, and 20 mmol/1 ACES, 150 mmol/l NaCl, 0.05% (w/v) Tween20, pH 7.4, 100 μmol/l kynurenine, and assay was carried out at 25° C. IL-6R was immobilized onto Sensor chip CM5 by amine coupling; and 6RNMSC1-2_F02 was diluted to 5 μg/ml with 20 mmol/1 ACES, 150 mmol/l NaCl, 0.05% (w/v) Tween20, pH 7.4, containing 100 μmol/l kynurenine, and it was interacted as an analyte for 180 seconds. Then, the dissociation of […] was monitored under each running buffer condition. In order to compare the degree of dissociation between the respective running buffer conditions, the values were normalized by taking as 100 the amount of 6RNMSC1-2_F02 bound to IL-6R in the presence of 100 μmol/l kynurenine and compared.
# Next, Biacore T200 (GE Healthcare) was used to assess the effect of kynurenine concentration on the antigen-antibody reaction between 6RNMSC1-2_F02 and IL-6R. The running buffer used was 20 mmol/1 ACES, 150 mmol/l NaCl, 0.05% (w/v) Tween20, pH 7.4. The antigen-antibody reaction between 6RNMSC1-2_F02 and human IL-6R was assayed at 25° C. IL-6R was immobilized onto sensor chip CM5 by amine coupling; and 6RNMSC1-2_F02 was diluted to 1 μg/ml with 20 mmol/l ACES, 150 mmol/l NaCl, 0.05% (w/v) Tween20, pH 7.4 containing various concentrations of kynurenine, and it was allowed to interact as an analyte for 180 seconds to observe changes in the amount of binding.
molecule,measurement,setting,value
B1,fluorescence (binding to membrane-type hIL-6R),[1]; in the absence of kynurenine,not detectable
same,fluorescence (binding to membrane-type hIL-6R),[1]; in the presence of 100 μM kynurenine,fluorescence shift was observed
same,IL-6R binding (sensorgram),"[2]; 1 μmol/l IL-6R, in the absence of kynurenine",not detectable
same,binding to IL-6R (sensorgram),"[2]; 1 μmol/l IL-6R, in the presence of 100 μmol/l kynurenine",binds to IL-6R
same,effect of kynurenine concentration on amount bound to IL-6R,"[2]; IL-6R immobilized, antibody as analyte for 180 seconds","the higher the concentration of kynurenine serving as a switch, the greater the amount of 6RNMSC1-2_F02 bound to IL-6R"
same,dissociation from IL-6R,"[2]; bound with 100 μmol/l kynurenine, then buffer without kynurenine, IL-6R immobilized",rapidly dissociates from IL-6R in the absence of kynurenine
same,Kd,"[2]; in the presence of 100 μmol/l kynurenine, read-out: dissociation constant KD",1500 nM
